# Data as given in the supplement of paper PMC10126150.
# ± gives the standard deviation of the averaged measurements.
# Tested on: ATP
# Assay: switch fluorescence ratio, 500 uM ATP over buffer (Cy3 cluster intensity, sum of 5 cycles each) (fold (ratio)); higher = stronger signal-on switching upon ATP binding; sequences stand for … in TCGTCGGCAGCGTCAGATGTGTATAAGAGACAGTTTTTTTTTTTTTTTTTTTTTTTTT…TC
# Settings: aptamer strand: ATP DNA aptamer (quencher-CACCTGGGGGAGTATTGCGGAGGAAGG + anchor), 100 nM annealed; ATP concentration: 500 uM
# How it was run: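 Values give the fluorescence ratio for each switch-domain sequence, averaged from per-cluster ratios of summed target-cycle to summed buffer-cycle Cy3 intensity. The Cy3-labelled switching-strand clusters sat on a modified Illumina MiSeq flow-cell, were annealed to 100 nM quencher-labelled ATP aptamer, and were imaged in selection buffer, then after 15 min with 500 uM ATP at 22 °C. Five cycles ran with NaOH stripping and re-annealing between them, and clusters outside 100-1000 RFU were excluded.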
# 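Also: ATP exposure 15 min at 22 °C before imaging.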
row,Sequence,switch fluorescence ratio
1,GTGGGAGATA,1.01 ± 0.038
2,GTGGGATGAC,1.01 ± 0.024
3,GTGGGATTAG,1 ± 0.028
4,GTGGGATTCG,1.011 ± 0.0059
5,GTGGGCCAGG,1.06 ± 0.094
6,GTGGGGAAGT,0.995 ± 0.034
7,GTGGGGACAC,0.973 ± 0.036
8,GTGGGGATTA,1 ± 0.018
9,GTGGGGATTT,1.01 ± 0.013
10,GTGGGGCTGG,1.008 ± 0.0055
11,GTGGGGGACG,0.982 ± 0.021
12,GTGGGGGCAT,1 ± 0.041
13,GTGGGGGCGC,1.04 ± 0.022
14,GTGGGGGGCC,0.966 ± 0.028
15,GTGGGGGTCG,0.98 ± 0.075
16,GTGGGGGTGG,0.985 ± 0.015
17,GTGGGGGTTA,0.996 ± 0.03
18,GTGGGGGTTT,1.05 ± 0.14
19,GTGGGGTCTT,1 ± 0.019
20,GTGGGGTGAA,1.03 ± 0.055
21,GTGGGGTTTT,0.983 ± 0.022
22,GTGGGTAAAG,0.975 ± 0.01
23,GTGGGTAGCG,0.994 ± 0.013
24,GTGGGTATTT,0.977 ± 0.023
25,GTGGGTCGGT,0.979 ± 0.036

row,Sequence,switch fluorescence ratio
1,GTGGGTGGTC,1.02 ± 0.013
2,GTGGGTGTGG,1.02 ± 0.022
3,GTGGGTTACT,1.02 ± 0.021
4,GTGGGTTAGG,0.996 ± 0.031
5,GTGGGTTCAG,1 ± 0.018
6,GTGGGTTCCT,1.013 ± 0.0021
7,GTGGGTTGTG,0.978 ± 0.04
8,GTGGTAACCT,1.4 ± 0.12
9,GTGGTACAGG,1.02 ± 0.068
10,GTGGTACATA,0.981 ± 0.022
11,GTGGTAGGGG,0.995 ± 0.025
12,GTGGTAGTTC,0.983 ± 0.015
13,GTGGTATTAT,1.01 ± 0.021
14,GTGGTATTTT,0.999 ± 0.035
15,GTGGTGCTAG,0.97206 ± 1.9e-05
16,GTGGTGGGGC,0.955 ± 0.03
17,GTGGTGGTTG,1.01 ± 0.028
18,GTGGTGTTGT,0.97 ± 0.037
19,GTGGTTAAAA,0.998 ± 0.012
20,GTGGTTCTTT,0.989 ± 0.044
21,GTGGTTGGAG,0.9865 ± 0.0072
22,GTGGTTGGCC,1.011 ± 0.0027
23,GTGGTTTGTT,1.01 ± 0.046
24,GTGGTTTTCG,1.03 ± 0.062
25,GTGTAAATGG,1.01 ± 0.013

row,Sequence,switch fluorescence ratio
1,GTGTAACCTG,1.01 ± 0.054
2,GTGTAAGAAC,1.016 ± 0.0048
3,GTGTAAGGGT,0.981 ± 0.018
4,GTGTAAGGTA,1.02 ± 0.018
5,GTGTACGCTG,0.988 ± 0.027
6,GTGTAGAGTT,1.02 ± 0.016
7,GTGTAGGGTA,1.01 ± 0.02
8,GTGTATAGGA,0.98611 ± 0.00034
9,GTGTATATGG,0.995 ± 0.017
10,GTGTATCGAT,1.003 ± 0.0081
11,GTGTATGGGA,0.967 ± 0.033
12,GTGTCAAGTA,0.961 ± 0.016
13,GTGTCATGGA,1 ± 0.029
14,GTGTCCGTGG,1.003 ± 0.0037
15,GTGTCCTTAT,0.998 ± 0.074
16,GTGTCGC,0.991 ± 0.047
17,GTGTCGGATC,1.06 ± 0.023
18,GTGTCGGGAA,0.9838 ± 0.0023
19,GTGTGAATGT,1.01 ± 0.021
20,GTGTGAGGTG,1 ± 0.03
21,GTGTGAGTTG,0.961 ± 0.022
22,GTGTGATCCG,1.01 ± 0.049
23,GTGTGCACTG,0.996 ± 0.029
24,GTGTGCCGTG,1.01 ± 0.05
25,GTGTGCGCGT,0.983 ± 0.025

row,Sequence,switch fluorescence ratio
1,GTGTGCGCTG,1.008 ± 0.0073
2,GTGTGGATCA,0.9867 ± 0.0093
3,GTGTGGGGCG,0.962 ± 0.058
4,GTGTGGGGGT,0.98 ± 0.019
5,GTGTGGTTTT,1.03 ± 0.015
6,GTGTGTGGGG,1.01 ± 0.048
7,GTGTGTTTTT,0.975 ± 0.053
8,GTGTTATCGT,0.969 ± 0.045
9,GTGTTGCCCG,1.07 ± 0.038
10,GTGTTGCCGA,1 ± 0.079
11,GTGTTGGGGT,0.986 ± 0.02
12,GTGTTGTACG,0.999 ± 0.015
13,GTGTTGTTTT,0.987 ± 0.028
14,GTGTTTAAA,0.962 ± 0.014
15,GTGTTTAAGA,1.01 ± 0.026
16,GTGTTTACTG,1.01 ± 0.054
17,GTGTTTATCG,0.966 ± 0.016
18,GTGTTTATGC,0.991 ± 0.0044
19,GTGTTTTAAA,1 ± 0.037
20,GTGTTTTAGG,0.96 ± 0.032
21,GTGTTTTGGT,0.98 ± 0.024
22,GTGTTTTTCC,1.41 ± 0.49
23,GTGTTTTTGT,0.9723 ± 0.0083
24,GTTAAAATTA,1.01 ± 0.015
25,GTTAAAGGGG,0.983 ± 0.02

row,Sequence,switch fluorescence ratio
1,GTTAACAGGA,0.985 ± 0.019
2,GTTAACGACG,1.017 ± 0.0068
3,GTTAACTTGA,1.01 ± 0.011
4,GTTAAGGATG,1.012 ± 0.0071
5,GTTAATAACA,1.011 ± 0.0052
6,GTTAATAGAA,0.984 ± 0.035
7,GTTACAAGCG,0.994 ± 0.018
8,GTTACAAGGG,0.9883 ± 0.0092
9,GTTACCTTTT,1.04 ± 0.023
10,GTTACTGAGG,1.031 ± 0.0017
11,GTTACTGCTG,1.03 ± 0.043
12,GTTAGAGATA,0.992 ± 0.015
13,GTTAGAGGGC,1 ± 0.011
14,GTTAGAGGGG,1.01 ± 0.033
15,GTTAGAGGTT,0.999 ± 0.03
16,GTTAGAGTAT,1 ± 0.012
17,GTTAGATTGA,0.96 ± 0.041
18,GTTAGATTGG,0.982 ± 0.013
19,GTTAGCGCAT,1.04 ± 0.025
20,GTTAGCTTGA,0.9966 ± 0.00037
21,GTTAGCTTGC,0.996 ± 0.029
22,GTTAGGAGGC,0.989 ± 0.062
23,GTTAGGAGTT,0.941 ± 0.039
24,GTTAGGCCTG,0.969 ± 0.013
25,GTTAGGGGGA,1 ± 0.011

row,Sequence,switch fluorescence ratio
1,GTTAGGGGTG,1.02 ± 0.023
2,GTTAGGGTTG,1.02 ± 0.045
3,GTTAGGTATA,0.9975 ± 0.0098
4,GTTAGGTTTT,1 ± 0.017
5,GTTAGTACAG,1.01 ± 0.031
6,GTTAGTATAA,0.9894 ± 0.0074
7,GTTAGTCGGT,0.983 ± 0.032
8,GTTAGTGATG,0.9838 ± 0.003
9,GTTAGTGGGG,0.992 ± 0.014
10,GTTAGTGTTG,0.978 ± 0.01
11,GTTAGTTTTT,0.986 ± 0.02
12,GTTATAAAGT,0.99 ± 0.024
13,GTTATAAGTT,1.06 ± 0.027
14,GTTATAATTG,0.984 ± 0.035
15,GTTATAGGGT,1.01 ± 0.02
16,GTTATAGTCG,0.999 ± 0.05
17,GTTATATAAC,1.03 ± 0.058
18,GTTATATAGG,0.982 ± 0.046
19,GTTATGTGGT,0.975 ± 0.0099
20,GTTATTCCAA,1.03 ± 0.028
21,GTTCAAATAG,0.9884 ± 0.0095
22,GTTCAAGGGG,0.983 ± 0.039
23,GTTCACTGGG,0.994 ± 0.022
24,GTTCCAAAGC,1.23 ± 0.019
25,GTTCCCAGTT,0.997 ± 0.017

row,Sequence,switch fluorescence ratio
1,GTTCCCTTGA,1.02 ± 0.018
2,GTTCCGGCGT,1.21 ± 0.25
3,GTTCCTTGGG,1.01 ± 0.016
4,GTTCGAAGAC,1.015 ± 0.0023
5,GTTCGCAAAT,1.09 ± 0.063
6,GTTCGGGGCT,0.999 ± 0.029
7,GTTCGGGGGG,1 ± 0.032
8,GTTCGTATTT,0.997 ± 0.021
9,GTTCGTCCTC,1.03 ± 0.031
10,GTTCGTCTTT,1 ± 0.013
11,GTTCTATGGT,0.998 ± 0.022
12,GTTCTGAAGG,1.02 ± 0.0029
13,GTTCTGTCGG,1.002 ± 0.01
14,GTTCTTGTGT,1.01 ± 0.023
15,GTTGAACGCG,1.028 ± 0.0015
16,GTTGAACTTT,1.02 ± 0.046
17,GTTGAAGTTT,0.9846 ± 0.0073
18,GTTGAATTGG,0.985 ± 0.026
19,GTTGACAAAT,1.036 ± 0.01
20,GTTGACTGGT,0.95 ± 0.016
21,GTTGAGGGGA,1.01 ± 0.058
22,GTTGAGGGTT,0.989 ± 0.049
23,GTTGAGGTTC,1.03 ± 0.035
24,GTTGATCAAT,1.03 ± 0.031
25,GTTGATGGAG,0.992 ± 0.0091

row,Sequence,switch fluorescence ratio
1,GTTGATGGGA,0.982 ± 0.03
2,GTTGATGGGG,0.984 ± 0.047
3,GTTGCATCGA,1.02 ± 0.046
4,GTTGCCGGGG,1.01 ± 0.015
5,GTTGCCTTCA,1.14 ± 0.035
6,GTTGCGGAGT,1 ± 0.021
7,GTTGCGTGCT,0.969 ± 0.032
8,GTTGCTAAAT,1 ± 0.03
9,GTTGCTACTG,1.05 ± 0.041
10,GTTGCTCTCA,1.01 ± 0.049
11,GTTGCTGTGG,0.985 ± 0.026
12,GTTGCTTTTT,0.998 ± 0.035
13,GTTGGAGCTA,1.036 ± 0.0083
14,GTTGGAGGAA,0.976 ± 0.0098
15,GTTGGAGGAG,0.992 ± 0.026
16,GTTGGAGGAT,0.9843 ± 0.0026
17,GTTGGATGTA,1.011 ± 0.008
18,GTTGGATTAA,1 ± 0.046
19,GTTGGCATGG,1.025 ± 0.0044
20,GTTGGCGTGA,1.01 ± 0.057
21,GTTGGGAAGT,0.994 ± 0.038
22,GTTGGGAGCG,1 ± 0.033
23,GTTGGGATTG,1.01 ± 0.013
24,GTTGGGGCTG,0.973 ± 0.14
25,GTTGGGGGCG,0.991 ± 0.052
